Experimental data taken from publication doi:10.1101/2022.09.07.507039.

Key:
[1] = target: recombinant Gli123 (Mycoplasma mobile); assay: SEC-SAXS
[2] = target: native Gli123 protein (Mycoplasma mobile); assay: SEC
[3] = target: native Gli123 protein (Mycoplasma mobile); assay: negative-staining EM with single-particle analysis

Substance	stoichiometry N [1]	stoichiometry N [2]	stoichiometry N [3]
recombinant Gli123 (natural protein)	2	–	–
native Gli123 protein (natural protein)	–	2	2
